Measurements reported in publication PMC4082471 (ChemMedChem, 2014).

Experiments:
[1] = Solubility in aqueous buffer by 1H NMR; type: physicochemical; conditions: for solubility compared to that of PTX alone: qualitative
[2] = literature value, ref not given; cited from earlier work
[3] = Stability in aqueous buffer and organic solvents by NMR; type: physicochemical
[4] = heparinized rat plasma, 400 μM compound, 37 °C, 1D 1H NMR 600 MHz

## CC(=O)O[C@H]1C(=O)[C@@]2(C)[C@H]([C@H](OC(=O)c3ccccc3)[C@]3(O)C[C@H](OC(=O)[C@H](O)[C@@H](NC(=O)c4ccccc4)c4ccccc4)C(C)=C1C3(C)C)[C@]1(OC(C)=O)CO[C@@H]1C[C@@H]2O [PTX, paclitaxel]
[1]; assessed from 1H NMR spectra in aqueous buffer
  solubility in aqueous buffer: below 10 μM
[2]
  aqueous solubility: < 10 µg/mL
  log P: 3.96

## DYPSMAMYSPSV [DYP-L2-PTX]
[1]
  solubility compared to that of PTX alone: increased solubility

## YSAYPDSVPMMS [YSA-L1-PTX]
[3]; DMSO or methanol
  stability in organic solvents: very stable
[3]; aqueous buffer
  time within which degradation of the linker in buffer is observed: ≤ 10 min

## YSAYPDSVPMMS [YSA-L2-PTX]
[1]
  solubility compared to that of PTX alone: increased solubility

## ySAYPDSVP(L-Norleucine)(L-Homoserine)S [dYNH-L2-PTX]
[1]
  solubility compared to that of PTX alone: increased solubility
[4]
  degradation after 8 hours incubation with plasma: d-Tyr1 does not appear to be degraded
